Consider six substances from patent publication US20050069530A1.

Chain of human type IIA sPLA2 (human) (P14555 21-144): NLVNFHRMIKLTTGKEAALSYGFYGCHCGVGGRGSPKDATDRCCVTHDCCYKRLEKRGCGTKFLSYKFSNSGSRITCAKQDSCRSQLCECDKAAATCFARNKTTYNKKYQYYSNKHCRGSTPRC

This assay concerns the target human type IIA sPLA2 (human) (UniProt P14555). As to the kind of experiment: cell-based or functional assay.
Turning to PIP (58-67) (peptide), the IC50 of sPLA2 enzyme inhibition (3H-labelled E. coli membranes as substrate) is 3.67 µM and the Mean % Inhibition at fixed peptide concentration [5 µM] came out at 59.5%. For the substance PIP (56-67) (peptide), the Mean % Inhibition at fixed peptide concentration [5 µM] is 34.2%. The substance PIP (60-67) (peptide) yielded an IC50 of sPLA2 enzyme inhibition (3H-labelled E. coli membranes as substrate) of 5.75 µM. Still for that read-out and setting: under D60, 65E-PIP (59-67) (peptide) stands 4.2 µM. As for PIP (57-67) (peptide), the Mean % Inhibition at fixed peptide concentration [5 µM] stood at 14.2%. As to PIP (59-67) (peptide), the IC50 of sPLA2 enzyme inhibition (3H-labelled E. coli membranes as substrate) turned out to be 3.8 µM and the Mean % Inhibition at fixed peptide concentration [5 µM] amounted to 56.4%.
